Source: PMC2942778 (Biochemistry, 2010)

Target: the molecule itself
Assay: AUC

B1: BlaI gene repressor (blaI gene product) of plasmid pI258 from S. aureus NRS128 (natural protein)
chain: MANKQVEISMAEWDVMNIIWGKKSVSANEIVVEIQKYKEVSDKTIRTLITRLYKKEIIKRYKSENIYFYSSNIKEDDIKMKTAKTFLNKLYGGDMKSLVLNFAKNEELNNKEIEELRDILNDISKK
- Kd: 1610 ± 20 nM
- stoichiometry N: 2
